Reference: patent publication US11026999B2, “Insulin glargine/lixisenatide fixed ratio formulation” (SANOFI-AVENTIS DEUTSCHLAND GMBH, priority 2013, dated 2021)

System: type 2 diabetic patients
Test: Treatment-emergent adverse events, SAEs, deaths, TEAEs leading to withdrawal (Example 1)
Details: Safety population
Method: Safety: The safety analysis was conducted on the safety population, defined as all randomized patients who received at least one dose of IMP (regardless of the amount of treatment administered). The evaluation of AEs, laboratory, vital sign, and ECG data was descriptive.

Substance: Gly(A21)-Arg(B31)-Arg(B32)-human insulin [Insulin Glargine]
- TEAE leading to permanent treatment discontinuation: Confusional state (PT): 0 n (%)
- TEAE leading to permanent treatment discontinuation: Dizziness (PT): 0 n (%)
- TEAE leading to permanent treatment discontinuation: Headache (PT): 0 n (%)
- TEAE leading to permanent treatment discontinuation: Nausea (PT): 0 n (%)
- TEAE leading to permanent treatment discontinuation: Ovarian cancer (PT): 0 n (%)
- TEAE leading to permanent treatment discontinuation: Vomiting (PT): 0 n (%)
- TEAE: Abdominal distension (PT): 2 (1.2%) n (%)
- TEAE: Arthralgia (PT): 3 (1.9%) n (%)
- TEAE: Asthenia (PT): 0 n (%)
- TEAE: Atrial fibrillation (PT): 1 (0.6%) n (%)
- TEAE: Back pain (PT): 2 (1.2%) n (%)
- TEAE: Bronchitis (PT): 1 (0.6%) n (%)
- TEAE: Conjunctivitis (PT): 2 (1.2%) n (%)
- TEAE: Constipation (PT): 0 n (%)
- TEAE: Contusion (PT): 2 (1.2%) n (%)
- TEAE: Cough (PT): 0 n (%)
- TEAE: Cystitis (PT): 2 (1.2%) n (%)
- TEAE: Decreased appetite (PT): 0 n (%)
- TEAE: Depression (PT): 2 (1.2%) n (%)
- TEAE: Diabetic neuropathy (PT): 2 (1.2%) n (%)
- TEAE: Diarrhoea (PT): 6 (3.7%) n (%)
- TEAE: Dizziness (PT): 1 (0.6%) n (%)
- TEAE: Dyspepsia (PT): 1 (0.6%) n (%)
- TEAE: Fatigue (PT): 0 n (%)
- TEAE: Gastroenteritis (PT): 1 (0.6%) n (%)
- TEAE: Headache (PT): 12 (7.4%) n (%)
- TEAE: Hypertension (PT): 2 (1.2%) n (%)
- TEAE: Hypertriglyceridaemia (PT): 0 n (%)
- TEAE: Influenza (PT): 6 (3.7%) n (%)
- TEAE: Injection site pruritus (PT): 0 n (%)
- TEAE: Insomnia (PT): 0 n (%)
- TEAE: Intervertebral disc disorder (PT): 2 (1.2%) n (%)
- TEAE: Laceration (PT): 3 (1.9%) n (%)
- TEAE: Lipase increased (PT): 1 (0.6%) n (%)
- TEAE: Musculoskeletal pain (PT): 1 (0.6%) n (%)
- TEAE: Nasopharyngitis (PT): 9 (5.6%) n (%)
- TEAE: Nausea (PT): 0 n (%)
- TEAE: Nepbrolithiasis (PT): 2 (1.2%) n (%)
- TEAE: Oedema (PT): 2 (1.2%) n (%)
- TEAE: Osteoarthritis (PT): 2 (1.2%) n (%)
- TEAE: Pain in extremity (PT): 0 n (%)
- TEAE: Presyncope (PT): 2 (1.2%) n (%)
- TEAE: Rhinitis (PT): 2 (1.2%) n (%)
- TEAE: Sciatica (PT): 2 (1.2%) n (%)
- TEAE: Sinusitis (PT): 3 (1.9%) n (%)
- TEAE: Tinnitus (PT): 2 (1.2%) n (%)
- TEAE: Tooth abscess (PT): 2 (1.2%) n (%)
- TEAE: Vomiting (PT): 1 (0.6%) n (%)
- Treatment emergent SAE: Angina pectoris (PT): 0 n (%)
- Treatment emergent SAE: Angina unstable (PT): 0 n (%)
- Treatment emergent SAE: Atrial fibrillation (PT): 1 (0.6%) n (%)
- Treatment emergent SAE: Bradycardia (PT): 0 n (%)
- Treatment emergent SAE: Calculus ureteric (PT): 0 n (%)
- Treatment emergent SAE: Cellulitis (PT): 0 n (%)
- Treatment emergent SAE: Depression (PT): 1 (0.6%) n (%)
- Treatment emergent SAE: Diabetic neuropathy (PT): 0 n (%)
- Treatment emergent SAE: ECG signs of myocardial ischaemia (PT): 1 (0.6%) n (%)
- Treatment emergent SAE: Intervertebral disc protrusion (PT): 0 n (%)
- Treatment emergent SAE: Osteoarthritis (PT): 1 (0.6%) n (%)
- Treatment emergent SAE: Ovarian cancer (PT): 0 n (%)
- Treatment emergent SAE: Pain in extremity (PT): 0 n (%)
- Treatment emergent SAE: Presyncope (PT): 1 (0.6%) n (%)
- Treatment emergent SAE: Radius fracture (PT): 0 n (%)
- Treatment emergent SAE: Sciatica (PT): 0 n (%)
- TEAE leading to permanent treatment discontinuation: Hypersensitivity (PT, adjudicated as not allergic event by ARAC): 0 n (%)
- TEAE leading to permanent treatment discontinuation: Gastrointestinal disorders (SOC): 0 n (%)
- TEAE leading to permanent treatment discontinuation: Immune system disorders (SOC): 0 n (%)
- TEAE leading to permanent treatment discontinuation: Neoplasms benign, malignant and unspecified (incl cysts and polyps) (SOC): 0 n (%)
- TEAE leading to permanent treatment discontinuation: Nervous system disorders (SOC): 0 n (%)
- TEAE leading to permanent treatment discontinuation: Psychiatric disorders (SOC): 0 n (%)
- TEAE: Cardiac disorders (SOC): 1 (0.6%) n (%)
- TEAE: Ear and labyrinth disorders (SOC): 2 (1.2%) n (%)
- TEAE: Eye disorders (SOC): 7 (4.3%) n (%)
- TEAE: Gastrointestinal disorders (SOC): 15 (9.3%) n (%)
- TEAE: General disorders and administration site conditions (SOC): 5 (3.1%) n (%)
- TEAE: Injury, poisoning and procedural complications (SOC): 11 (6.8%) n (%)
- TEAE: Investigations (SOC): 5 (3.1%) n (%)
- TEAE: Metabolism and nutrition disorders (SOC): 1 (0.6%) n (%)
- TEAE: Musculoskeletal and connective tissue disorders (SOC): 13 (8.0%) n (%)
- TEAE: Nervous system disorders (SOC): 20 (12.3%) n (%)
- TEAE: Psychiatric disorders (SOC): 2 (1.2%) n (%)
- TEAE: Renal and urinary disorders (SOC): 2 (1.2%) n (%)
- TEAE: Respiratory, thoracic and mediastinal disorders (SOC): 4 (2.5%) n (%)
- TEAE: Vascular disorders (SOC): 3 (1.9%) n (%)
- Treatment emergent SAE: Cardiac disorders (SOC): 1 (0.6%) n (%)
- Treatment emergent SAE: Injury, poisoning and procedural complications (SOC): 0 n (%)
- Treatment emergent SAE: Investigations (SOC): 1 (0.6%) n (%)
- Treatment emergent SAE: Musculoskeletal and connective tissue disorders (SOC): 1 (0.6%) n (%)
- Treatment emergent SAE: Neoplasms benign, malignant and unspecified (incl cysts and polyps) (SOC): 0 n (%)
- Treatment emergent SAE: Nervous system disorders (SOC): 1 (0.6%) n (%)
- Treatment emergent SAE: Psychiatric disorders (SOC): 1 (0.6%) n (%)
- Treatment emergent SAE: Renal and urinary disorders (SOC): 0 n (%)
- Patients with any TEAE: 82 (50.6%) n (%)
- Patients with any TEAE leading to death: 0 n (%)
- Patients with any TEAE leading to permanent treatment discontinuation: 0 n (%)
- Patients with any treatment emergent SAE: 6 (3.7%) n (%)
- TEAE leading to permanent treatment discontinuation: HLGT: Allergic conditions: 0 n (%)
- TEAE leading to permanent treatment discontinuation: HLGT: Deliria (incl confusion): 0 n (%)
- TEAE leading to permanent treatment discontinuation: HLGT: Gastrointestinal signs and symptoms: 0 n (%)
- TEAE leading to permanent treatment discontinuation: HLGT: Headaches: 0 n (%)
- TEAE leading to permanent treatment discontinuation: HLGT: Neurological disorders NEC: 0 n (%)
- TEAE leading to permanent treatment discontinuation: HLGT: Reproductive neoplasms female malignant and unspecified: 0 n (%)
- TEAE leading to permanent treatment discontinuation: HLT: Allergic conditions NEC: 0 n (%)
- TEAE leading to permanent treatment discontinuation: HLT: Confusion and disorientation: 0 n (%)
- TEAE leading to permanent treatment discontinuation: HLT: Headaches NEC: 0 n (%)
- TEAE leading to permanent treatment discontinuation: HLT: Nausea and vomiting symptoms: 0 n (%)
- TEAE leading to permanent treatment discontinuation: HLT: Neurological signs and symptoms NEC: 0 n (%)
- TEAE leading to permanent treatment discontinuation: HLT: Ovarian neoplasms malignant (excl germ cell): 0 n (%)
- TEAE: HLGT: Administration site reactions: 1 (0.6%) n (%)
- TEAE: HLGT: Appetite and general nutritional disorders: 1 (0.6%) n (%)
- TEAE: HLGT: Cardiac arrhythmias: 1 (0.6%) n (%)
- TEAE: HLGT: Depressed mood disorders and disturbances: 2 (1.2%) n (%)
- TEAE: HLGT: Gastrointestinal investigations: 2 (1.2%) n (%)
- TEAE: HLGT: Gastrointestinal motility and defaecation conditions: 7 (4.3%) n (%)
- TEAE: HLGT: Gastrointestinal signs and symptoms: 7 (4.3%) n (%)
- TEAE: HLGT: General system disorders NEC: 4 (2.5%) n (%)
- TEAE: HLGT: Headaches: 13 (8.0%) n (%)
- TEAE: HLGT: Injuries NEC: 9 (5.6%) n (%)
- TEAE: HLGT: Inner ear and VIIIth cranial nerve disorders: 2 (1.2%) n (%)
- TEAE: HLGT: Joint disorders: 6 (3.7%) n (%)
- TEAE: HLGT: Lipid metabolism disorders: 0 n (%)
- TEAE: HLGT: Musculoskeletal and connective tissue deformities (incl intervertebral disc disorders): 2 (1.2%) n (%)
- TEAE: HLGT: Musculoskeletal and connective tissue disorders NEC: 3 (1.9%) n (%)
- TEAE: HLGT: Neurological disorders NEC: 5 (3.1%) n (%)
- TEAE: HLGT: Peripheral neuropathies: 2 (1.2%) n (%)
- TEAE: HLGT: Respiratory disorders NEC: 2 (1.2%) n (%)
- TEAE: HLGT: Sleep disorders and disturbances: 0 n (%)
- TEAE: HLGT: Spinal cord and nerve root disorders: 2 (1.2%) n (%)
- TEAE: HLGT: Urolithiases: 2 (1.2%) n (%)
- TEAE: HLGT: Vascular hypertensive disorders: 2 (1.2%) n (%)
- TEAE: HLT: Appetite disorders: 1 (0.6%) n (%)
- TEAE: HLT: Asthenic conditions: 0 n (%)
- TEAE: HLT: Chronic polyneuropathies: 2 (1.2%) n (%)
- TEAE: HLT: Coughing and associated symptoms: 0 n (%)
- TEAE: HLT: Depressive disorders: 2 (1.2%) n (%)
- TEAE: HLT: Digestive enzymes: 2 (1.2%) n (%)
- TEAE: HLT: Disturbances in initiating and maintaining sleep: 0 n (%)
- TEAE: HLT: Dyspeptic signs and symptoms: 1 (0.6%) n (%)
- TEAE: HLT: Elevated triglycerides: 0 n (%)
- TEAE: HLT: Flatulence, bloating and distension: 2 (1.2%) n (%)
- TEAE: HLT: Gastrointestinal atonic and hypomotility disorders NEC: 1 (0.6%) n (%)
- TEAE: HLT: Headaches NEC: 12 (7.4%) n (%)
- TEAE: HLT: Influenza viral infections: 6 (3.7%) n (%)
- TEAE: HLT: Injection site reactions: 1 (0.6%) n (%)
- TEAE: HLT: Inner ear signs and symptoms: 2 (1.2%) n (%)
- TEAE: HLT: Intervertebral disc disorders NEC: 2 (1.2%) n (%)
- TEAE: HLT: Joint related signs and symptoms: 3 (1.9%) n (%)
- TEAE: HLT: Lower respiratory tract and lung infections: 1 (0.6%) n (%)
- TEAE: HLT: Lumbar spinal cord and nerve root disorders: 2 (1.2%) n (%)
- TEAE: HLT: Musculoskeletal and connective tissue pain and discomfort: 3 (1.9%) n (%)
- TEAE: HLT: Nausea and vomiting symptoms: 1 (0.6%) n (%)
- TEAE: HLT: Neurological signs and symptoms NEC: 3 (1.9%) n (%)
- TEAE: HLT: Oedema NBC: 3 (1.9%) n (%)
- TEAE: HLT: Osteoarthropathies: 2 (1.2%) n (%)
- TEAE: HLT: Renal lithiasis: 2 (1.2%) n (%)
- TEAE: HLT: Skin injuries NEC: 5 (3.1%) n (%)
- TEAE: HLT: Supraventricular arrhythmias: 1 (0.6%) n (%)
- TEAE: HLT: Vascular hypertensive disorders NEC: 2 (1.2%) n (%)
- Treatment emergent SAE: HLGT: Bacterial infectious disorders: 0 n (%)
- Treatment emergent SAE: HLGT: Bone and joint injuries: 0 n (%)
- Treatment emergent SAE: HLGT: Cardiac and vascular investigations (excl enzyme tests): 1 (0.6%) n (%)
- Treatment emergent SAE: HLGT: Cardiac arrhythmias: 1 (0.6%) n (%)
- Treatment emergent SAE: HLGT: Coronary artery disorders: 0 n (%)
- Treatment emergent SAE: HLGT: Depressed mood disorders and disturbances: 1 (0.6%) n (%)
- Treatment emergent SAE: HLGT: Joint disorders: 1 (0.6%) n (%)
- Treatment emergent SAE: HLGT: Musculoskeletal and connective tissue deformities (incl intervertebral disc disorders): 0 n (%)
- Treatment emergent SAE: HLGT: Musculoskeletal and connective tissue disorders NEC: 0 n (%)
- Treatment emergent SAE: HLGT: Neurological disorders NEC: 1 (0.6%) n (%)
- Treatment emergent SAE: HLGT: Peripheral neuropathies: 0 n (%)
- Treatment emergent SAE: HLGT: Reproductive neoplasms female malignant and unspecified: 0 n (%)
- Treatment emergent SAE: HLGT: Spinal cord and nerve root disorders: 0 n (%)
- Treatment emergent SAE: HLGT: Urolithiases: 0 n (%)
- Treatment emergent SAE: HLT: Bacterial infections NEC: 0 n (%)
- Treatment emergent SAE: HLT: Chronic polyneuropathies: 0 n (%)
- Treatment emergent SAE: HLT: Depressive disorders: 1 (0.6%) n (%)
- Treatment emergent SAE: HLT: ECG investigations: 1 (0.6%) n (%)
- Treatment emergent SAE: HLT: Intervertebral disc disorders NEC: 0 n (%)
- Treatment emergent SAE: HLT: Ischaemic coronary artery disorders: 0 n (%)
- Treatment emergent SAE: HLT: Lumbar spinal cord and nerve root disorders: 0 n (%)
- Treatment emergent SAE: HLT: Musculoskeletal and connective tissue pain and discomfort: 0 n (%)
- Treatment emergent SAE: HLT: Neurological signs and symptoms NEC: 1 (0.6%) n (%)
- Treatment emergent SAE: HLT: Osteoarthropathies: 1 (0.6%) n (%)
- Treatment emergent SAE: HLT: Ovarian neoplasms malignant (excl germ cell): 0 n (%)
- Treatment emergent SAE: HLT: Rate and rhythm disorders NEC: 0 n (%)
- Treatment emergent SAE: HLT: Supraventricular arrhythmias: 1 (0.6%) n (%)
- Treatment emergent SAE: HLT: Upper limb fractures and dislocations: 0 n (%)
- Treatment emergent SAE: HLT: Urinary tract lithiasis (excl renal): 0 n (%)
- Patients with any TEAE leading to permanent treatment discontinuation (listed as insulin glargine): none
- Patients with any treatment emergent SAE (listed as insulin glargine): 6 (3.7%) n (%)
